This note sets out measurements from patent publication US20050202000.

Where “and” joins values, the source holds several entries; their conditions need not be identical. Identical values can stand only once.

T1: plasminogen, P00747
T1 chain: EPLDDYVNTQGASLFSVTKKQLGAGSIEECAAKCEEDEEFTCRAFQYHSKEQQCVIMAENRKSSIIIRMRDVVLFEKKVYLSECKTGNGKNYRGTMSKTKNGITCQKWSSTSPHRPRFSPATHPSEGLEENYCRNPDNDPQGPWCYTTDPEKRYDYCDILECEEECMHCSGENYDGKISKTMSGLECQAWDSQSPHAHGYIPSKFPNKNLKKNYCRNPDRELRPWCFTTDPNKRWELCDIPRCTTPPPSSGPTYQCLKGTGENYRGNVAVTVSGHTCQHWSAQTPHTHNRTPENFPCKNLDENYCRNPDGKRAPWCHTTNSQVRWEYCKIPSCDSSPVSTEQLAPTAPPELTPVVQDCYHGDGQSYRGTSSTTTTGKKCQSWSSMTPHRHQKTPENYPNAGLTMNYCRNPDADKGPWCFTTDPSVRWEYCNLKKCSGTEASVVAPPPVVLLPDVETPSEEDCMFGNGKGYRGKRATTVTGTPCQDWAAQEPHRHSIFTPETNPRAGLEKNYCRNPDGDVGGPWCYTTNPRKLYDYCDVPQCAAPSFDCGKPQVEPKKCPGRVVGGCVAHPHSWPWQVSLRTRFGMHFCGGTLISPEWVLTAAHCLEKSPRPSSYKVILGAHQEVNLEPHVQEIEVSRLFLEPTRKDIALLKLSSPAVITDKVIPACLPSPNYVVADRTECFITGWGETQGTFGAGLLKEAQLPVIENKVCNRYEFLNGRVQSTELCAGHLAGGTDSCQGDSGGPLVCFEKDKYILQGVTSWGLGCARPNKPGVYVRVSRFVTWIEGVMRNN

B1: KGD-Sak · plasmin complex (protein)
chain 1: SSSFDKGKYKKGDDASYFEPTGPTLMVNVTGVDGKRNELLSPRYVEFPIKPGTTLTKEKIEYYVEWALDATAYKEFRVVELDPSAKIEVTYYDKNKKKEETKSFPITEKGDVVPDLSEHIKNPGFNLITKVVIEKK
chain 2: KVYLSECKTGNGKNYRGTMSKTKNGITCQKWSSTSPHRPRFSPATHPSEGLEENYCRNPDNDPQGPWCYTTDPEKRYDYCDILECEEECMHCSGENYDGKISKTMSGLECQAWDSQSPHAHGYIPSKFPNKNLKKNYCRNPDRELRPWCFTTDPNKRWELCDIPRCTTPPPSSGPTYQCLKGTGENYRGNVAVTVSGHTCQHWSAQTPHTHNRTPENFPCKNLDENYCRNPDGKRAPWCHTTNSQVRWEYCKIPSCDSSPVSTEQLAPTAPPELTPVVQDCYHGDGQSYRGTSSTTTTGKKCQSWSSMTPHRHQKTPENYPNAGLTMNYCRNPDADKGPWCFTTDPSVRWEYCNLKKCSGTEASVVAPPPVVLLPDVETPSEEDCMFGNGKGYRGKRATTVTGTPCQDWAAQEPHRHSIFTPETNPRAGLEKNYCRNPDGDVGGPWCYTTNPRKLYDYCDVPQCAAPSFDCGKPQVEPKKCPGRVVGGCVAHPHSWPWQVSLRTRFGMHFCGGTLISPEWVLTAAHCLEKSPRPSSYKVILGAHQEVNLEPHVQEIEVSRLFLEPTRKDIALLKLSSPAVITDKVIPACLPSPNYVVADRTECFITGWGETQGTFGAGLLKEAQLPVIENKVCNRYEFLNGRVQSTELCAGHLAGGTDSCQGDSGGPLVCFEKDKYILQGVTSWGLGCARPNKPGVYVRVSRFVTWIEGVMRNN
B2: Sak · plasmin complex (protein)
chain 1: SSSFDKGKYKKGDDASYFEPTGPYLMVNVTGVDGKGNELLSPHYVEFPIKPGTTLTKEKIEYYVEWALDATAYKEFRVVELDPSAKIEVTYYDKNKKKEETKSFPITEKGFVVPDLSEHIKNPGFNLITKVVIEKK
chain 2: KVYLSECKTGNGKNYRGTMSKTKNGITCQKWSSTSPHRPRFSPATHPSEGLEENYCRNPDNDPQGPWCYTTDPEKRYDYCDILECEEECMHCSGENYDGKISKTMSGLECQAWDSQSPHAHGYIPSKFPNKNLKKNYCRNPDRELRPWCFTTDPNKRWELCDIPRCTTPPPSSGPTYQCLKGTGENYRGNVAVTVSGHTCQHWSAQTPHTHNRTPENFPCKNLDENYCRNPDGKRAPWCHTTNSQVRWEYCKIPSCDSSPVSTEQLAPTAPPELTPVVQDCYHGDGQSYRGTSSTTTTGKKCQSWSSMTPHRHQKTPENYPNAGLTMNYCRNPDADKGPWCFTTDPSVRWEYCNLKKCSGTEASVVAPPPVVLLPDVETPSEEDCMFGNGKGYRGKRATTVTGTPCQDWAAQEPHRHSIFTPETNPRAGLEKNYCRNPDGDVGGPWCYTTNPRKLYDYCDVPQCAAPSFDCGKPQVEPKKCPGRVVGGCVAHPHSWPWQVSLRTRFGMHFCGGTLISPEWVLTAAHCLEKSPRPSSYKVILGAHQEVNLEPHVQEIEVSRLFLEPTRKDIALLKLSSPAVITDKVIPACLPSPNYVVADRTECFITGWGETQGTFGAGLLKEAQLPVIENKVCNRYEFLNGRVQSTELCAGHLAGGTDSCQGDSGGPLVCFEKDKYILQGVTSWGLGCARPNKPGVYVRVSRFVTWIEGVMRNN
B3: RGD-Sak · plasmin complex (protein)
chain 1: SSSFDKGKYKKGDDASYFEPTGPTLMVNVTGVDGKRNELLSPRYVEFPIKPGTTLTKEKIEYYVEWALDATAYKEFRVVELDPSAKIEVTYYDKNKKKEETKSFPITERGDVVPDLSEHIKNPGFNLITKVVIEKK
chain 2: KVYLSECKTGNGKNYRGTMSKTKNGITCQKWSSTSPHRPRFSPATHPSEGLEENYCRNPDNDPQGPWCYTTDPEKRYDYCDILECEEECMHCSGENYDGKISKTMSGLECQAWDSQSPHAHGYIPSKFPNKNLKKNYCRNPDRELRPWCFTTDPNKRWELCDIPRCTTPPPSSGPTYQCLKGTGENYRGNVAVTVSGHTCQHWSAQTPHTHNRTPENFPCKNLDENYCRNPDGKRAPWCHTTNSQVRWEYCKIPSCDSSPVSTEQLAPTAPPELTPVVQDCYHGDGQSYRGTSSTTTTGKKCQSWSSMTPHRHQKTPENYPNAGLTMNYCRNPDADKGPWCFTTDPSVRWEYCNLKKCSGTEASVVAPPPVVLLPDVETPSEEDCMFGNGKGYRGKRATTVTGTPCQDWAAQEPHRHSIFTPETNPRAGLEKNYCRNPDGDVGGPWCYTTNPRKLYDYCDVPQCAAPSFDCGKPQVEPKKCPGRVVGGCVAHPHSWPWQVSLRTRFGMHFCGGTLISPEWVLTAAHCLEKSPRPSSYKVILGAHQEVNLEPHVQEIEVSRLFLEPTRKDIALLKLSSPAVITDKVIPACLPSPNYVVADRTECFITGWGETQGTFGAGLLKEAQLPVIENKVCNRYEFLNGRVQSTELCAGHLAGGTDSCQGDSGGPLVCFEKDKYILQGVTSWGLGCARPNKPGVYVRVSRFVTWIEGVMRNN

This series addresses T1, plasminogen, P00747.
Take B1: the Kcat is 1.46 s⁻¹, the Kcat/Km came out at 0.1 and the Km was determined as 14.1 µM.

In the case of B2, the Kcat is 1.03 s⁻¹ and 1.06 s⁻¹; the Kcat/Km worked out at 0.16; the Km is 6.42 µM and 6.51 µM.

As to B3, the Kcat amounted to 1.41 s⁻¹, the Kcat/Km came out at 0.11 and the Km was 12.5 µM.

In general, Km refers to the substrate concentration at which the rate is half of its maximum.
